How the values were obtained:
[1] = target: ATP6V1B2 (Mus musculus, UniProt P62814); assay: Immunoprecipitation from hippocampus of mice given biotin-labeled polypeptide, with SDS-PAGE and protein mass spectrum identification; format: binding; design: from tissue; host or cells: mouse brain hippocampus; conditions: biotin-labeled polypeptide 6.25 mg/kg through veins, hippocampus collected after 4 h, compared with disordered control QD201
Protocol: (1) Polypeptide QD202 was synthesized according to the amino acid sequence as set forth in SEQ ID NO. 1, and a biotin label was added at the […] of the polypeptide; and the amino acid sequence of the QD202 was randomly disorganized, a disordered control QD201 (the amino acid sequence as set forth in SEQ ID NO. 7) was synthesized, and the biotin label was added at the […] of the polypeptide. The polypeptide QD202 and the QD201 were dissolved by PBS, and a storage solution is prepared with the concentration of 500 μM.
(2) The biotin-labeled QD202 and QD201 were respectively feed to 2 C57BL/6 mice of 8 months old through veins at the dosage of 6.25 mg/kg. The mice were anesthetized after 4 h, brain hippocampus tissues were collected, a lysis buffer solution was added, the tissues were crushed by mechanical grinding, and then supernatant was collected after centrifuging. The biotin antibody and Protein G agarose beads were added into the supernatant for immunoprecipitation, the test steps referred to Using Antibodies: A Laboratory Manual [J]. Science Press, 2002. The proteins were eluted by a protein loading buffer solution. […]

[2] = target: T1, murine ATP6V1B2 1-172aa truncated sequence (Mus musculus, UniProt P62814); assay: Co-immunoprecipitation of EGFP-tagged QD202 with Myc-tagged ATP6V1B2 1-172aa truncated sequence in 293 cells; format: binding; conditions: Myc antibody, immunoblotting
T1 construct: expressed in transfected cells; host or cells: 293 cells
Description: (§1) Expression plasmids including murine ATP6V1B2 full-length sequence, 1-286aa truncated sequence or 1-172aa truncated sequence with a Myc tag are respectively constructed; the amino acid sequence of the murine ATP6V1B2 full-length sequence was as set forth in SEQ ID NO. 8, the amino acid sequence of the murine ATP6V1B21-286aa was as set forth in SEQ ID NO. 10; the amino acid sequence of the murine ATP6V1B21-172aa as set forth in as SEQ ID NO. 11; and these plasmids were respectively called as an ATP6V1B2 full-length expression plasmid, an ATP6V1B21-286aa expression plasmid and an ATP6V1B21-172aa expression plasmid. Meanwhile, a QD202 expression plasmid with an EGFP tag was constructed. […]
(§2) Then a Protein G agarose bead was added to be bound to the Myc antibody, so as to precipitate the ATP6V1B2 full-length protein, the 1-286aa truncated sequence or the 1-172aa truncated sequence, and proteins which were bound to one another, and finally the proteins subjected to co-immunoprecipitation was detected by virtue of an immunoblotting method.

[3] = tested on: hippocampal CA1 pyramidal neurons; assay: Whole-cell patch-clamp recording of spontaneous excitatory postsynaptic current (sEPSC) in hippocampus brain slice; format: cell-based, mouse; conditions: sEPSC at -70 mV, perfusion for 5 min; 5 μM in Embodiment 3
Protocol: 0.1-0.15 ml of 20% ethyl carbamate was injected into the abdominal cavity of a C57 mouse of 2 to 3 months old for anesthesia; a head was quickly cut, and brain tissues were stripped and put into artificial cerebrospinal fluid (ACSF) ice-water mixed liquid into which mixed gas (95% O2 and 5% CO2) was introduced in advance, and stood for 2 min; the ACSF included the following components: […] of NaCl, […] of KCl, 0.12 mM of NaH2PO4, 0.25 mM of CaCl2), 0.12 mM of MgCl2, 25 mM of NaHCO3 and 11 mM of glucose. A hippocampus coronal brain slice of 350 μm was cut by a vibration slicer. The hippocampus coronal brain slice was placed into the ACSF at room temperature for more than 30 min for recovery, and then the brain slice was put into a record slot; continuous perfusing was performed at a speed of 2 to 2.5 ml/min by the ACSF into which the mixed gas was introduced; blind-binding sealing was performed on hippocampus CA1 pyramidal neuron under an Olympic BX51 upright microscope; whole-cell patch-clamp was performed by an Axon700B amplifier and a 1550B digital-to-analog converter; spontaneous excitatory postsynaptic current (sEPSC) of the pyramidal neuron was recorded by a voltage clamp under the clamp voltage of −70 mV; after recording for 5 min, synthetic polypeptides such as 5 μM QD202 or QD202 N′-1, C′-1 and C′-2 for 5 min; and then perfusing and flushing were performed for 10 min by the ACSF. The recorded data was analyzed by Minianalysis software. […]

[4] = target: T2, murine ATP6V1B2 full-length protein (Mus musculus, UniProt P62814); assay: Co-immunoprecipitation of EGFP-tagged QD202 with Myc-tagged ATP6V1B2 full-length protein in 293 cells; format: binding
T2 construct: expressed in transfected cells; host or cells: 293 cells
Description: as §1, §2

T2 sequence (P62814 whole entry): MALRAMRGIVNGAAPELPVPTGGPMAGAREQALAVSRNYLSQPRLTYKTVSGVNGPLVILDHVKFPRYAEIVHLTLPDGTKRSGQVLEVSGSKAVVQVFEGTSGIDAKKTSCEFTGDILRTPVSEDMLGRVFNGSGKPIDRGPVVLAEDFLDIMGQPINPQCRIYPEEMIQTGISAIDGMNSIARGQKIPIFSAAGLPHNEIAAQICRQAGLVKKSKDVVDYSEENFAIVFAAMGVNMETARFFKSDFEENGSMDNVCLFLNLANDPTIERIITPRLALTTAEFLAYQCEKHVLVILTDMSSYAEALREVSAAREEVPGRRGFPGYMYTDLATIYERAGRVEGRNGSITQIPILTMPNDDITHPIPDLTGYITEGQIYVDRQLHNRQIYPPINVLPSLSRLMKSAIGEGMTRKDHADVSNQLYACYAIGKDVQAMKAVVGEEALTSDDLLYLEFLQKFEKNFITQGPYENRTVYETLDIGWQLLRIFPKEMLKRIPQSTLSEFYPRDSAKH
Sequence of ATP6V1B2 (P62814 whole entry): as above
T1 sequence (P62814 1-172): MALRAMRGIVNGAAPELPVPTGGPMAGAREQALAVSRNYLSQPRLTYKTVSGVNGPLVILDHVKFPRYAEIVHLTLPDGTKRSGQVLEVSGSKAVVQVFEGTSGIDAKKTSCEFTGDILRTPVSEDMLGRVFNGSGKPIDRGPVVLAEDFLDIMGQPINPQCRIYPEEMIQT

In the case of “QD202: polypeptide synthesized according to the amino acid sequence as set forth in SEQ ID NO. 1 (YGRKKRRQRRRSPVDVVCS; QD202)”, the “protein specifically bound to the polypeptide (mass spectrum identification)” value [1] is reported as “protein specifically bound to QD202 was ATP6V1B2”, the “binding to ATP6V1B2 1-172aa truncated sequence by co-immunoprecipitation” value [2] is reported as “only the full-length ATP6V1B2 protein can be combined” and the “excitatory postsynaptic current amplitude” value [3] is reported as “no influence”. The “release frequency of excitatory postsynaptic current” value [3] was “increasing the release frequency”, the “spontaneous excitatory synaptic transmitter release of hippocampal CA1 neurons” value [3] was “can increase the spontaneous excitatory synaptic transmitter release” and the “binding to ATP6V1B2 full-length protein by co-immunoprecipitation” value ([4]; 293 cells, Myc antibody, immunoblotting) was “only the full-length ATP6V1B2 protein can be combined”. For the same substance, the “binding site of ATP6V1B2 and QD202” value ([4]; concluded from full-length versus truncated sequences) was 288th amino acid to 512th amino acid.

From patent US20240343762A1, “USE OF PROTON PUMP MODULATOR IN PREPARING REAGENT” (SHANGHAI QUIETD BIOTECHNOLOGY CO. LTD., priority 2021, published 2024)
